The values that follow come from US20210388087A1 (Chugai, published 2021).

The labels stand for the following.
T1: Human CD3eg linker (human)
T1 construct: Single chain: epsilon and gamma subunits of human CD3 joined by a 29-mer linker, Flag-tag at the C-terminus; also called recombinant human CD3
T1 chain: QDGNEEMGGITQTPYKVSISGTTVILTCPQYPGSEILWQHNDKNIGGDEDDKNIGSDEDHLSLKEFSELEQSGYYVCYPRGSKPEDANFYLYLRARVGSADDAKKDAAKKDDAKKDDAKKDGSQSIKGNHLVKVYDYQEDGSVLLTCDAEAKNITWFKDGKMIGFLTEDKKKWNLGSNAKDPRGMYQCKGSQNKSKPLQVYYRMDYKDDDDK

B1: H183/L072 VH V95M (antibody, name in Kabat numbering, V domains shown)
VH: QVQLVESGGGLVQPGRSLRLSCAASGFTFSNAWMHWVRQAPGKGLEWVAQIKDKGNAYAAYYAPSVKGRFTISRDDSKNSIYLQMNSLKTEDTAVYYCHYMHYASASTVLPAFGVDAWGQGTTVTVSS
VL: DIVMTQSPLSLPVTPGEPASISCQASQELVHMNRNTYLHWYQQKPGQAPRLLIYKVSNRFPGVPDRFSGSGSGTDFTLKISRVEAEDVGVYYCAQGTSVPFTFGQGTKLEIK
B2: H183/L072 VH Y55G (antibody, name in Kabat numbering, V domains shown)
VH: B1 VH with Y58G, M101V
VL: B1 VL
B3: H183/L072 VH W33F (antibody, name in Kabat numbering, V domains shown)
VH: B1 VH with W33F, M101V
VL: B1 VL
B4: H183/L072 VH W33Y (antibody, name in Kabat numbering, V domains shown)
VH: B1 VH with W33Y, M101V
VL: B1 VL
B5: H183/L072 VH Y55E (antibody, name in Kabat numbering, V domains shown)
VH: B1 VH with Y58E, M101V
VL: B1 VL
B6: H183/L072 VH W33N (antibody, name in Kabat numbering, V domains shown)
VH: B1 VH with W33N, M101V
VL: B1 VL
B7: H183/L072 VH Y55I (antibody, name in Kabat numbering, V domains shown)
VH: B1 VH with Y58I, M101V
VL: B1 VL
B8: H183/L072 VH V100cI (antibody, name in Kabat numbering, V domains shown)
VH: B1 VH with M101V, V109I
VL: B1 VL
B9: H183/L072 VH W33D (antibody, name in Kabat numbering, V domains shown)
VH: B1 VH with W33D, M101V
VL: B1 VL
B10: H183/L072 VH W33A (antibody, name in Kabat numbering, V domains shown)
VH: B1 VH with W33A, M101V
VL: B1 VL
B11: H183/L072 VH W33M (antibody, name in Kabat numbering, V domains shown)
VH: B1 VH with W33M, M101V
VL: B1 VL
B12: H183/L072 VH Y55N (antibody, name in Kabat numbering, V domains shown)
VH: B1 VH with Y58N, M101V
VL: B1 VL
B13: H183/L072 VH V100cA (antibody, name in Kabat numbering, V domains shown)
VH: B1 VH with M101V, V109A
VL: B1 VL
B14: H183/L072 VH W33E (antibody, name in Kabat numbering, V domains shown)
VH: B1 VH with W33E, M101V
VL: B1 VL
B15: H183/L072 VH Y55A (antibody, name in Kabat numbering, V domains shown)
VH: B1 VH with Y58A, M101V
VL: B1 VL
B16: H183/L072 VH V100cL (antibody, name in Kabat numbering, V domains shown)
VH: B1 VH with M101V, V109L
VL: B1 VL
B17: H183/L072 VH Y55H (antibody, name in Kabat numbering, V domains shown)
VH: B1 VH with Y58H, M101V
VL: B1 VL
B18: H183/L072 VH Y55D (antibody, name in Kabat numbering, V domains shown)
VH: B1 VH with Y58D, M101V
VL: B1 VL
B19: H183/L072 VH W33H (antibody, name in Kabat numbering, V domains shown)
VH: B1 VH with W33H, M101V
VL: B1 VL
B20: H183/L072 VH W33R (antibody, name in Kabat numbering, V domains shown)
VH: B1 VH with W33R, M101V
VL: B1 VL
B21: H183/L072 VH V100iL (antibody, name in Kabat numbering, V domains shown)
VH: B1 VH with M101V, V115L
VL: B1 VL
B22: H183/L072 VH W33L (antibody, name in Kabat numbering, V domains shown)
VH: B1 VH with W33L, M101V
VL: B1 VL
B23: H183/L072 VH V100iP (antibody, name in Kabat numbering, V domains shown)
VH: B1 VH with M101V, V115P
VL: B1 VL
B24: H183/L072 VH V95P (antibody, name in Kabat numbering, V domains shown)
VH: B1 VH with M101P
VL: B1 VL
B25: H183/L072 VH V100iI (antibody, name in Kabat numbering, V domains shown)
VH: B1 VH with M101V, V115I
VL: B1 VL
B26: H183/L072 VH W33V (antibody, name in Kabat numbering, V domains shown)
VH: B1 VH with W33V, M101V
VL: B1 VL
B27: H183/L072 VH W33S (antibody, name in Kabat numbering, V domains shown)
VH: B1 VH with W33S, M101V
VL: B1 VL
B28: H183/L072 VH V100iM (antibody, name in Kabat numbering, V domains shown)
VH: B1 VH with M101V, V115M
VL: B1 VL
B29: H183/L072 VH W33Q (antibody, name in Kabat numbering, V domains shown)
VH: B1 VH with W33Q, M101V
VL: B1 VL
B30: H183/L072 VH W33T (antibody, name in Kabat numbering, V domains shown)
VH: B1 VH with W33T, M101V
VL: B1 VL
B31: H183/L072 VH Y55K (antibody, name in Kabat numbering, V domains shown)
VH: B1 VH with Y58K, M101V
VL: B1 VL
B32: H183/L072 VH W33K (antibody, name in Kabat numbering, V domains shown)
VH: B1 VH with W33K, M101V
VL: B1 VL
B33: H183/L072 VH V100iA (antibody, name in Kabat numbering, V domains shown)
VH: B1 VH with M101V, V115A
VL: B1 VL
B34: H183/L072 VH W33P (antibody, name in Kabat numbering, V domains shown)
VH: B1 VH with W33P, M101V
VL: B1 VL
B35: H183/L072 VH W33I (antibody, name in Kabat numbering, V domains shown)
VH: B1 VH with W33I, M101V
VL: B1 VL
B36: H183/L072 VH Y55F (antibody, name in Kabat numbering, V domains shown)
VH: B1 VH with Y58F, M101V
VL: B1 VL
B37: H183/L072 VH V100cP (antibody, name in Kabat numbering, V domains shown)
VH: B1 VH with M101V, V109P
VL: B1 VL
B38: H183/L072 VH Y55P (antibody, name in Kabat numbering, V domains shown)
VH: B1 VH with Y58P, M101V
VL: B1 VL
B39: H183/L072 VH W33G (antibody, name in Kabat numbering, V domains shown)
VH: B1 VH with W33G, M101V
VL: B1 VL
B40: H183/L072 VH Y55M (antibody, name in Kabat numbering, V domains shown)
VH: B1 VH with Y58M, M101V
VL: B1 VL
B41: H183/L072 VH V100cM (antibody, name in Kabat numbering, V domains shown)
VH: B1 VH with M101V, V109M
VL: B1 VL
B42: H183/L072 VH Y55L (antibody, name in Kabat numbering, V domains shown)
VH: B1 VH with Y58L, M101V
VL: B1 VL

Where a chain is given by its changes, count along the chain named. Numbers in names are those of the source.

The assay deals with T1, Human CD3eg linker. Kind of assay: Biacore SPR, vs template H183/L072. On the technique in general: SPR reads the build-up and loss of mass on a sensor chip optically.
As to B1, the “fold change of affinity” value was determined as 0.3 fold.
As to B2, the “fold change of affinity” value turned out to be 0.6 fold.
With B3, the “fold change of affinity” value was 0.4 fold.
Under B4 stands 0.1 fold; under B5, 0.6 fold.
Turning to B6, the “fold change of affinity” value was 0 fold.
B7: the “fold change of affinity” value amounted to 0 fold.
B8: the “fold change of affinity” value turned out to be 1 fold.
Regarding B9, the “fold change of affinity” value worked out at 0 fold.
Turning to B10, the “fold change of affinity” value was determined as 0 fold.
In the case of B11 it was 0 fold.
B12: the “fold change of affinity” value was 0.7 fold.
B13: the “fold change of affinity” value is 1.1 fold.
Turning to B14, the “fold change of affinity” value came to 0 fold.
In the case of B15 it was 0.4 fold.
Consider B16, for which the “fold change of affinity” value is 1.2 fold.
Turning to B17, the “fold change of affinity” value was 0.7 fold.
As for B18, the “fold change of affinity” value amounted to 0.4 fold.
Turning to B19, the “fold change of affinity” value worked out at 0 fold.
With B20, the “fold change of affinity” value came out at 0 fold.
For the molecule B21, the “fold change of affinity” value is 1.8 fold.
As for B22, the “fold change of affinity” value stood at 0 fold.
Take B23: the “fold change of affinity” value is 1.2 fold.
For B24, the “fold change of affinity” value is 0 fold.
In the case of B25 it was 0.8 fold; in that of B26, 0 fold.
In the case of B27, the “fold change of affinity” value came to 0 fold.
In the case of B28, the “fold change of affinity” value turned out to be 5.6 fold.
Under B29 stands 0 fold; under B30, 0 fold.
Under B31 stands 0.4 fold; under B32, 0 fold.
With B33, the “fold change of affinity” value was 4.6 fold.
As to B34, the “fold change of affinity” value was 0 fold.
Turning to B35, the “fold change of affinity” value was found to be 0 fold.
Consider B36, for which the “fold change of affinity” value stood at 0.8 fold.
B37: the “fold change of affinity” value came out at 1 fold.
For the molecule B38, the “fold change of affinity” value was determined as 0 fold.
Turning to B39, the “fold change of affinity” value turned out to be 0 fold.
For B40, the “fold change of affinity” value was 0.6 fold.
Under B41 stands 1.2 fold; under B42, 0.5 fold.
